Holding throughout (test): cryo-EM structure
For one assay, the target named is T1, TAF3 (human (endogenous in HeLa), UniProt Q5VWG9 1-929).
T1 sequence (looked up): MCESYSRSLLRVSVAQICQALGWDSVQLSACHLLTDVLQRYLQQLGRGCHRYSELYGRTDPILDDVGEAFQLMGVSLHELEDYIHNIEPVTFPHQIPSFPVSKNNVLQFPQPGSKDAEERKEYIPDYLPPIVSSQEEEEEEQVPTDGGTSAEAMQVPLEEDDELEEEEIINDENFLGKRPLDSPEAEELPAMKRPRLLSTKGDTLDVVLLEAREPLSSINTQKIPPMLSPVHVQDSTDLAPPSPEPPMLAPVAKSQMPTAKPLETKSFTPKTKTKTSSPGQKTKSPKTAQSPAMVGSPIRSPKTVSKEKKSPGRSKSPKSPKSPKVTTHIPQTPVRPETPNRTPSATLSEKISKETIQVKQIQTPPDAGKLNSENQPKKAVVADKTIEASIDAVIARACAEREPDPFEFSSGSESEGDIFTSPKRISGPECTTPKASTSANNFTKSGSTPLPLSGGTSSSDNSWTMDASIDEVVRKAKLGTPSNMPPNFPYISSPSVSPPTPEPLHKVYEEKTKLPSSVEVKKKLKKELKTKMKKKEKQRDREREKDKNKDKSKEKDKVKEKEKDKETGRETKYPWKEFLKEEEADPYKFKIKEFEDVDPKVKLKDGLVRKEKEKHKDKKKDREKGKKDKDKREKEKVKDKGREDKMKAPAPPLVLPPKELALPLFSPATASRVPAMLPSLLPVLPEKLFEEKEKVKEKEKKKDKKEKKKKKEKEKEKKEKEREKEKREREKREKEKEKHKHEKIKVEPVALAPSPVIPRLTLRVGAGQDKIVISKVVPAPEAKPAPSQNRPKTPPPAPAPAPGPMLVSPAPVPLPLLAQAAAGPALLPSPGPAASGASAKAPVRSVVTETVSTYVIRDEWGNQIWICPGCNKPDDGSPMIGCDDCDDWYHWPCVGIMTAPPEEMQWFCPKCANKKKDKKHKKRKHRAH

In the next assay the target is T2, TAF8 (human (endogenous in HeLa), UniProt Q7Z7C8 1-310).
T2 sequence (looked up): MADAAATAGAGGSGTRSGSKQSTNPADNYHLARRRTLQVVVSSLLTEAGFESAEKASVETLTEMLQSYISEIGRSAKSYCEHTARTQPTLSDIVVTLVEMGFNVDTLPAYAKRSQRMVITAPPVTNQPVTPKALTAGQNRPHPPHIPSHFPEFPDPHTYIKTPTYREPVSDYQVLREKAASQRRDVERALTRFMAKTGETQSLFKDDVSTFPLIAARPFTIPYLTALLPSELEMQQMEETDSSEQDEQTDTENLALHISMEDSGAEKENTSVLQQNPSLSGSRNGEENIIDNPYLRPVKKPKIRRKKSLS

In the next assay the target is TAF11 (human (endogenous in HeLa), UniProt Q15544 1-211).
Sequence of TAF11 (Q15544 whole entry): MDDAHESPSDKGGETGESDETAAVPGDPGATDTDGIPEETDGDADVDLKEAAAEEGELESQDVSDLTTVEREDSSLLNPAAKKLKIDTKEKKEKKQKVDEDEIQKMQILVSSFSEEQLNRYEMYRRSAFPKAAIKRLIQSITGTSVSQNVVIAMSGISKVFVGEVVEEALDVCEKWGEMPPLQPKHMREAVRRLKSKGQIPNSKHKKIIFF

B1: TAF10 (natural protein)
chain: not shown
For the molecule B1, the binding result with TAF3 and with TAF8 was “binds” each time.

B2: TAF13 (natural protein, human (endogenous in HeLa), UniProt Q15543 1-124, looked up)
chain: MADEEEDPTFEEENEEIGGGAEGGQGKRKRLFSKELRCMMYGFGDDQNPYTESVDILEDLVIEFITEMTHKAMSIGRQGRVQVEDIVFLIRKDPRKFARVKDLLTMNEELKRARKAFDEANYGS
As to B2, the binding result with TAF11 is given as “binds”.
